Literature values as cited in article PMC7149769.

Columns and labels:
Factor Xa (Homo sapiens) = Factor Xa (Homo sapiens) (UniProt P00742)
Factor X (Homo sapiens) = Factor X (Homo sapiens) (UniProt P00742)

Question: Which Kd (Factor Xa (Homo sapiens)) does the source give for Factor Va (from UniProt P12259) here?
Answer: 1 nM

Question: With Mac-1 (from UniProt P11215) as the substance, how does the Kd (Factor X (Homo sapiens)) read?
Answer: 30 nM
